Source: IntAct's records for PubMed 23629652

Molecular target: klk5_human KLK5 (UniProt Q9Y337)
Sequence (Q9Y337 whole entry): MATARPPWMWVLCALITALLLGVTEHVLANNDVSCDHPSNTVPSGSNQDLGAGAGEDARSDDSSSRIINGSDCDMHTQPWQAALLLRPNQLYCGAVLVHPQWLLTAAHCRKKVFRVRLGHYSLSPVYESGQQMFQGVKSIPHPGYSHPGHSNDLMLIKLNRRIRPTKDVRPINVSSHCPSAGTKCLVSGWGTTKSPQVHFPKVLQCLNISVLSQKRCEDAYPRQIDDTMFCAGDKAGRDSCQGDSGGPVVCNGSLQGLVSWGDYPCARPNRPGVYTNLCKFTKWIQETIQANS

- effect of a mutation on the interaction: disrupting interaction
Substance: Filaggrin (Homo sapiens), P20930 S3385H;Y3388H;Q3389H;S3391H;T3392H
